{
  "source": "paper PMC6197822",
  "biological_target": "Thr315Ala variant of the catalytic domain of ICR^Mc (ICR^Mccat^Thr315Ala) (Moraxella catarrhalis strain BC1)",
  "experiment": "crystal structure",
  "data": [
    {"substance": "Thr315Ala variant of the catalytic domain of ICR^Mc (ICR^Mccat^Thr315Ala) (domain or fragment)", "values": [
      {"measurement": "stoichiometry N", "result": 2}
    ]}
  ]
}
